Laboratory results published in patent publication US20210277102A1, “COMPOSITIONS AND METHODS FOR TREATING A TUMOR SUPPRESSOR DEFICIENT CANCER” (BETH ISRAEL DEACONESS MEDICAL CENTER, INC., priority 2016, published 2021).

Assays:
GPR35 [1] = target: T1, GPR35 (Homo sapiens, UniProt Q9HC97); settings: in vitro; cited from earlier work
Target sequence in this assay (Q9HC97 whole entry): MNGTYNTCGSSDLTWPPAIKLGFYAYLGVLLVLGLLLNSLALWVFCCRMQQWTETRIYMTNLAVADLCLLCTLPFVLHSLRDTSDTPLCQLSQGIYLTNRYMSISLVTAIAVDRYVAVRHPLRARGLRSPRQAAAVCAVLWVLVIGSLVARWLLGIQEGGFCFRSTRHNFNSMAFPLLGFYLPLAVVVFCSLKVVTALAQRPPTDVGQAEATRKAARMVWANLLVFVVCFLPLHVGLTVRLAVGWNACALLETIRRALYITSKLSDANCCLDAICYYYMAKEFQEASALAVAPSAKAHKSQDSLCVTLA

mouse GPR35 = mouse GPR35 (Mus musculus, UniProt Q9ES90); settings: in vitro; cited from earlier work
prostate cancer = settings: phase III clinical trial in prostate cancer, unselected patients; cited from earlier work
[2] = test system: Gr1+ cells isolated from the bone marrow of healthy mice; assay: Transwell migration assay with recombinant proteins, Gr1+ cells; assay type: cell-based, mouse; settings: Gr1+ cells mostly Ly6G+/Ly6C^int PMN cells; increasing concentration of recombinant protein
Text: (§1) Gr1+ cells and monocytes were isolated from the bone marrow (tibias and femurs) of C57BL/6 wild type, 3 months old mice using the MACS Myltenyi Biotec Cell Isolation system according to the manufacturer's instruction. For monocytes isolation the Monocyte Isolation Kit (BM) (Miltenyi 130-100-629) was used, whereas Gr1 positive cells were isolated using the antibody Anti-Gr-1-Biotin, clone RB6-8C5 (Miltenyi 130-101-894). Red blood cells were lysed with the ACK lysis buffer (ThermoFisher Scientific A1049201). Total bone marrow cells and Gr1+ cells were cultured for 4 days. Briefly, 40 ng/ml GM-CSF (PeproTech #315-03) and 40 ng/ml IL-6 (PeproTech #216-16) were added to the control medium RPMI 1640 (ThermoFisher Scientific 11875-093), supplemented with penicillin-streptomycin, 10% FBS, 10 mM HEPES, 20 μM 2-Mercaptoethanol. Either recombinant mouse CXCL5 (BioLegend #573302) or recombinant mouse CXCL17 (BioLegend #585402) was added at the beginning of the experiment (200 nM). For the migration assay 2.5×10^5 MACS sorted cells were resuspended in 100 μL of either RPMI 1640 control medium or organoid complete medium and placed on the upper well of the transwell system (5 μm, Corning #160241). […] The migration of cells was quantified by flow cytometry, 15 seconds acquisition time, using BD LSR II flow cytometer.

[3] = test system: whole bone marrow (BM) mouse cells and Gr1+ cells isolated from the BM; assay: 4-day culture of bone marrow and Gr1+ cells in GM-CSF, IL-6 medium plus recombinant chemokine (flow analysis, qRT-PCR); assay type: cell-based; settings: 4 days culture, GM-CSF and IL-6, recombinant chemokine 200 nM
Text: Gr1+ cells and monocytes were isolated from the bone marrow (tibias and femurs) of C57BL/6 wild type, 3 months old mice using the MACS Myltenyi Biotec Cell Isolation system according to the manufacturer's instruction. For monocytes isolation the Monocyte Isolation Kit (BM) (Miltenyi 130-100-629) was used, whereas Gr1 positive cells were isolated using the antibody Anti-Gr-1-Biotin, clone RB6-8C5 (Miltenyi 130-101-894). Red blood cells were lysed with the ACK lysis buffer (ThermoFisher Scientific A1049201). Total bone marrow cells and Gr1+ cells were cultured for 4 days. Briefly, 40 ng/ml GM-CSF (PeproTech #315-03) and 40 ng/ml IL-6 (PeproTech #216-16) were added to the control medium RPMI 1640 (ThermoFisher Scientific 11875-093), supplemented with penicillin-streptomycin, 10% FBS, 10 mM HEPES, 20 μM 2-Mercaptoethanol. Either recombinant mouse CXCL5 (BioLegend #573302) or recombinant mouse CXCL17 (BioLegend #585402) was added at the beginning of the experiment (200 nM). For the migration assay 2.5×10^5 MACS sorted cells were resuspended in 100 μL of either RPMI 1640 control medium or organoid complete medium and placed on the upper well of the transwell system (5 μm, Corning #160241). The migration assay with recombinant proteins was performed by adding to the bottom well 600 μL of RMPI1640 control medium supplemented with the indicated amount of either CXCL5 or CXCL17. The migration assay with organoid conditioned medium was performed by adding to the bottom well 600 μL of medium collected over 5 days of culture of prostate organoids with the indicated genotype. The migration of cells was quantified by flow cytometry, 15 seconds acquisition time, using BD LSR II flow cytometer.
For Flow Cytometry, spleen and lymph node single cell suspensions were prepared by mashing the tissue in 2% FBS/PBS. Tumor and control prostate tissue (from anterior lobes) single cell suspension was prepared by mincing the tumor and digestion with Collagenase Type I (Life Technologies #17018029) in 10% DMEM (GIBCO) for 1 hr at 37° C. Cell suspensions were passed through […] cell strainers to obtain single cell suspensions. Blood samples and single cell suspensions were re-suspended in 1-2 ml of ACK red cell lysis buffer (GIBCO) and lysed on ice for 1 minute. Cell suspensions were then washed in 2% FBS/PBS, centrifuged and re-suspended in 0.5-1 ml of 2% FBS/PBS. For flow cytometry, 100 μl of cell suspension was stained in a 96-well U-bottom plate and the following antibodies were used: CD45.2-Pacific Blue (BioLegend #109820), CD45.2-APC (eBioscience #17-0454-82), CD45.2-FITC (eBioscience #11-0454-85), Gr-1-FITC (eBioscience #11-5931), Gr-1-PE (eBioscience #12-5931-81), CD11b-PECy7 (eBioscience #25-0112), CD11b-FITC (eBioscience #11-0112-82), Ly6C-PE (eBioscience #12-5932-80), Ly6G-APC-Cy7 (BioLegend #127623), Ly6G-APC (BioLegend #127613), CD3-PE (eBioscience #12-0031), CD4-APC (BioLegend #100515), CD4-PE-Cy7 (eBioscience #25-0042-82), CD8-APC (BioLegend #100721), CD8-FITC (eBioscience #11-0081-85), B220-FITC (eBioscience #11-0452), CD19-PerCP-Cy5.5 (eBioscience #45-0193), F4/80-APC (eBioscience #17-4801), CD44-FITC (BD Pharmingen #561859), CD62L-APC (BioLegend #104411), CD206-PE (BioLegend #141705) and CD49f-APC (eBioscience #17-0495). All antibodies were used 1:100. To assess cell viability, cells were incubated with either DAPI or TO-PRO3 prior to FACS analysis. Foxp3 staining was done using FOXP3 Fix/Perm Buffer Set (BioLegend) and cells were stained by Foxp3-FITC antibody (eBioscience #11-5773). All staining mixtures were analyzed on a BD LSR II flow cytometer (Becton Dickinson). Resulting profiles were further processed and analyzed using the FlowJo 8.7 software.
Microarray analysis and gene set enrichment analysis on mouse tumor tissue were conducted and analyzed as previously described by Palucka, A. K. et al. (Palucka, A. K. et al. Cell 164, 1233-1247 (2016)). […]

GPR35 [4] = target: T1, GPR35; settings: cited from earlier work
Target sequence in this assay (Q9HC97 whole entry, species assumed): as the sequence (Q9HC97 whole entry) above

[5] = test system: monocytes isolated from the bone marrow of healthy mice; assay: Transwell migration assay with recombinant proteins, monocytes; assay type: cell-based, mouse; settings: increasing concentration of recombinant protein in bottom well
Text: as §1

Sequence of mouse GPR35 (Q9ES90 whole entry): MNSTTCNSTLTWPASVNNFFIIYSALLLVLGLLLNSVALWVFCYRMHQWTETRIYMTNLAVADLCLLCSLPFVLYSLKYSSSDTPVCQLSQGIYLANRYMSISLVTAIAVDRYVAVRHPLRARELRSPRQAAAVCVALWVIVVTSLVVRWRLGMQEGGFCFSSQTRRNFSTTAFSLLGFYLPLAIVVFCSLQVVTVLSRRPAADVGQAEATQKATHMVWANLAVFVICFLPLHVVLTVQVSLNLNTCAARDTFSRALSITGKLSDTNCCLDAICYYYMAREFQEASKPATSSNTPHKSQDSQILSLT

Molecule: COC(=O)c1cnn(-c2ccc(F)cc2F)c1/C=N/NC(=S)NC(C)(C)C [CID2745687]
- antagonist activity at human GPR35 (GPR35 [1]): in vitro antagonist activity
- antagonist activity at mouse GPR35 (mouse GPR35): in vitro antagonist activity

Molecule: CC(/C=C1\SC(=S)N(CCCC(=O)Nc2ccc(C(=O)O)c(O)c2)C1=O)=C\c1ccccc1 [ML145]
- antagonist activity at mouse GPR35 (mouse GPR35): in vitro antagonist activity

Molecule: COc1cccc2c1c(O)c(C(=O)N(C)c1ccc(C(F)(F)F)cc1)c(=O)n2C [Tasquinimod]
- survival benefit (prostate cancer): failed to show a clear survival benefit

B1: CXCL5: recombinant mouse CXCL5 (BioLegend #573302) (protein, UniProt P50228 41-132, looked up)
C-X-C motif chemokine 5: APSSVIAATELRCVCLTVTPKINPKLIANLEVIPAGPQCPTVEVIAKLKNQKEVCLDPEAPVIKKIIQKILGSDKKKAKRNALAVERTASVQ
- migration of Gr1+ cells toward medium with recombinant protein [2]: chemoattractants for PMN
- expression of the Ly6C and Ly6G markers (flow analysis) [3]: did not observe any significant difference
- expression profile of the genes tested (qRT-PCR) [3]: did not observe any significant difference
- expression of the Ly6C and Ly6G markers (flow analysis) ([3]; listed as recombinant CXCL5): did not show significant changes

B2: CXCL17: recombinant mouse CXCL17 (BioLegend #585402); chemokine ligand of GPR35 (protein, UniProt Q5UW37 23-119, looked up)
C-X-C motif chemokine 17: SPNPGVARSHGDQHLAPRRWLLEGGQECECKDWFLQAPKRKATAVLGPPRKQCPCDHVKGREKKNRHQKHHRKSQRPSRACQQFLKRCHLASFALPL
- concentration range of GPR35-CXCL17 mediated functional responses (GPR35 [4]): ~50 nM
- migration of monocytes toward medium with recombinant protein [5]: concentration-dependent effect
- migration of Gr1+ cells toward medium with recombinant protein [2]: only on monocytes
- expression of the Ly6C and Ly6G markers (flow analysis) [3]: did not observe any significant difference
- expression profile of the genes tested (qRT-PCR) [3]: did not observe any significant difference
- expression of the Ly6C and Ly6G markers (flow analysis) ([3]; listed as recombinant CXCL17): did not show significant changes
